We go through two compounds from publication PMC9537296 (Scientific Reports, 2022).

Some results are limits rather than exact numbers.

The test system of test [1] is hyperinsulinemic hypoglycemia. The following applies: meta-analysis of six cohorts (1142 subjects); cited from earlier work. An excerpt:
Diazoxide, a first-line therapy, is a nondiuretic benzothiadizine originally formulated as a peripheral vasodilator for the treatment of hypertension. […] Octreotide—a synthetic peptide analog of somatostatin—has been frequently used as a second-line therapy to treat patients with CHI who are not res ...

In a further test the target is T1, FcγRIIA (Homo sapiens, UniProt P12318).
T1 construct: purchased
T1 sequence (P12318 34-317): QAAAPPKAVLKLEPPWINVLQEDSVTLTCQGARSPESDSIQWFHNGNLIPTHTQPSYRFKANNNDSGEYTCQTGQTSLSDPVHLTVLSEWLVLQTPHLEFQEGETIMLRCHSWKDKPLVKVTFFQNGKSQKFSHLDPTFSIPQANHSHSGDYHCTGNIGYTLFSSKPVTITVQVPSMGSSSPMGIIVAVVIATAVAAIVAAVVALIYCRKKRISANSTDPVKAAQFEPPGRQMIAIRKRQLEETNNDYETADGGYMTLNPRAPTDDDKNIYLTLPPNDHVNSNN
Description: FcγRIIA binding by SPR. The following applies: SPR BIACORE T200, 25 °C, steady-state affinity fit; read-out: Binding affinities (KD) FcγRIIA. How it is done:
(§1) All experiments were carried out on a BIACORE T200 instrument (GE Healthcare, USA) at 25 °C. Amine coupling chemistry was used to immobilize FcγRs on the surface of a CM5 sensor chip. For activation, a mixture of NHS and EDC solution was injected onto a CM5 sensor chip for 7 min at a flow rate of 10 μL/min. FcγRIA, FcγRIIA, FcγRIIB/C, FcγRIIIA, and FcγRIIIB were immobilized on CM5 chips by injecting 5 μg/mL of FcγRIA, 10 μg/mL of FcγRIIA, 2 μg/mL of FcγRIIIA, 10 μg/mL of FcγRIIIB, and 10 μg/mL of FcγRIIB/C diluted with 10 mM sodium acetate (pH 4.5) onto CM5 chips at a flow rate of 5 μL/min. The target RU was 1500 RU for FcγRIA and FcγRIIA, 3,000 RU for FcγRIIB/C and FcγRIIIB, and 1,000 RU for FcγRIIIA. To deactivate unreacted moieties, the chip surface was blocked with 1 M ethanolamine/HCl (pH 8.5) for 7 min at a flow rate of […]. HMC001 and I.V.-Globulin SN were diluted with running buffer to 500, 250, 125, 62.5, and 31.25 nM. HM15136 was diluted with running buffer to 486, 243, 121.5, 60.75, and 30.38 nM. The test materials were injected for 10 min (for Fc immobilized with FcγRIA and FcγRIIA) or 15 min (for Fc immobilized with FcγRIIIA, FcγRIIIB, and FcγRIIB/C) for association, followed by 10 min-dissociation at 20 μL/min. Binding affinity was evaluated with a steady-state affinity fitting model in BIACORE T200 Evaluation Software version 3.0. […]
On the technique in general: In SPR one partner is held on a chip, and binding of the other changes the refractive index at the surface.

A further test has as its target T2, FcγRIIIA (Homo sapiens, UniProt P08637).
T2 construct: purchased
The test can be described thus: FcγRIIIA binding by SPR. The following applies: SPR BIACORE T200, 25 °C, steady-state affinity fit; read-out: Binding affinities (KD) FcγRIIIA. Here is the method:
as §1

In another test the target is T3, FcγRIA (Homo sapiens, UniProt P12314).
T3 construct: purchased
T3 sequence (P12314 16-374): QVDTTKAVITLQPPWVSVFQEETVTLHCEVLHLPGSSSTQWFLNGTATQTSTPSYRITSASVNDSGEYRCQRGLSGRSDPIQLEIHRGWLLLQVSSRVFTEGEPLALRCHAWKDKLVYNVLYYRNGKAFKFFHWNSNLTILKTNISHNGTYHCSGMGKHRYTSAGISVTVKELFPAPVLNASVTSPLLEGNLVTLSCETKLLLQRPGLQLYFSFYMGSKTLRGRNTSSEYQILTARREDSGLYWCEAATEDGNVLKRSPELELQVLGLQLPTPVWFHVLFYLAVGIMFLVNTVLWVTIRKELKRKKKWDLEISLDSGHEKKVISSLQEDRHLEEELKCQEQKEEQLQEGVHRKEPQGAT
Description: FcγRIA binding by SPR. As to conditions: SPR BIACORE T200, 25 °C, steady-state affinity fit; read-out: Binding affinities (KD) FcγRIA. How it is done: as §1

The target of a further test is T4, FcγRIIIB (Homo sapiens, UniProt O75015).
T4 construct: purchased
T4 sequence (O75015 17-233): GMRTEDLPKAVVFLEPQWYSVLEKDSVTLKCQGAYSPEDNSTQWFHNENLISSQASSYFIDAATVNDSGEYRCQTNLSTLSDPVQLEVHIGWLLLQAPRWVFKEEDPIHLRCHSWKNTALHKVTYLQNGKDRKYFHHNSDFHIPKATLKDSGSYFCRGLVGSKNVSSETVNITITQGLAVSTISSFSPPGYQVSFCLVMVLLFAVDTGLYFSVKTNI
The test can be described thus: FcγRIIIB binding by SPR. The following applies: SPR BIACORE T200, 25 °C, steady-state affinity fit; read-out: Binding affinities (KD) FcγRIIIB. Here is the method:
as §1

In another test the target is T5, FcγRIIB/C (Homo sapiens, UniProt P31994).
T5 construct: purchased
T5 sequence (P31994 43-310): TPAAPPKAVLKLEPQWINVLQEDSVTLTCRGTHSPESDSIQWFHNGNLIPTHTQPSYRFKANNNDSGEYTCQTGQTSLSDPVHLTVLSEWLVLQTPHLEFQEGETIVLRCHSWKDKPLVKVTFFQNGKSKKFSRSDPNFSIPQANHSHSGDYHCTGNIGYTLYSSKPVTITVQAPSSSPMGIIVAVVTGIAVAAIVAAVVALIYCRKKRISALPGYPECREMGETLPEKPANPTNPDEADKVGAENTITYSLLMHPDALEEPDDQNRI
Description: FcγRIIB/C binding by SPR. As to conditions: SPR BIACORE T200, 25 °C, steady-state affinity fit; read-out: Binding affinities (KD) FcγRIIB/C.

The next test concerns the target human C1q (Homo sapiens, UniProt P02745+P02746+P02747). The test can be described thus: C1q binding by SPR. The following applies: SPR BIACORE T200, test material immobilized, steady-state affinity fit; read-out: Binding affinities (KD) C1q.

T2 sequence (P08637 17-254): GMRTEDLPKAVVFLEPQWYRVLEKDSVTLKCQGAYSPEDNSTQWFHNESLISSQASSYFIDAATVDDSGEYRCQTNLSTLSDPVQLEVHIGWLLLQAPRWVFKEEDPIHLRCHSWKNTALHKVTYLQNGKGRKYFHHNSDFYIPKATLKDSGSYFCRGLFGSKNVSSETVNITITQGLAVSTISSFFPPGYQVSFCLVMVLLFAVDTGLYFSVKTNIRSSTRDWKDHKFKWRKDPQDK
Sequence of human C1q (P02745 23-245): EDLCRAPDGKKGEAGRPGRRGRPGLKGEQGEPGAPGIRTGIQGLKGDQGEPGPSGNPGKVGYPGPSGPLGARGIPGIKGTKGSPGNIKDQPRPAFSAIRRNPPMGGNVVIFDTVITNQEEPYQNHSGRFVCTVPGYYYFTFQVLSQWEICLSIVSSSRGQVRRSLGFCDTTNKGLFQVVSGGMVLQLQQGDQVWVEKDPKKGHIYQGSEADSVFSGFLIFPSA
Sequence of human C1q (P02746 28-253): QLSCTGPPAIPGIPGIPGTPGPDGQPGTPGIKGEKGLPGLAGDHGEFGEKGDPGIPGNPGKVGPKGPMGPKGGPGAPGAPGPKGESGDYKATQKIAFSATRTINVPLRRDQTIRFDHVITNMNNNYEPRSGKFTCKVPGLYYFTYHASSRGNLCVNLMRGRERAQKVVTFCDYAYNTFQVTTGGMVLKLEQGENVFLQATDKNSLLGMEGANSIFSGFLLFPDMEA
Sequence of human C1q (P02747 29-245): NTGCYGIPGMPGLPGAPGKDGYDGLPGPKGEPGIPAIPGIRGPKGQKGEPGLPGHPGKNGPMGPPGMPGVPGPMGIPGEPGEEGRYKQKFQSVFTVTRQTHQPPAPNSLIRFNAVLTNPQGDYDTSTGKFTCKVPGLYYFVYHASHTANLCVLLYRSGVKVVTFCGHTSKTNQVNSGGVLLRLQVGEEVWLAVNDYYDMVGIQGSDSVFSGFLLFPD
Description for FcγRIIB/C: All experiments were carried out on a BIACORE T200 instrument (GE Healthcare, USA) at 25 °C. Amine coupling chemistry was used to immobilize FcγRs on the surface of a CM5 sensor chip. For activation, a mixture of NHS and EDC solution was injected onto a CM5 sensor chip for 7 min at a flow rate of 10 μL/min. FcγRIA, FcγRIIA, FcγRIIB/C, FcγRIIIA, and FcγRIIIB were immobilized on CM5 chips by injecting 5 μg/mL of FcγRIA, 10 μg/mL of FcγRIIA, 2 μg/mL of FcγRIIIA, 10 μg/mL of FcγRIIIB, and 10 μg/mL of FcγRIIB/C diluted with 10 mM sodium acetate (pH 4.5) onto CM5 chips at a flow rate of 5 μL/min. The target RU was 1500 RU for FcγRIA and FcγRIIA, 3,000 RU for FcγRIIB/C and FcγRIIIB, and 1,000 RU for FcγRIIIA. To deactivate unreacted moieties, the chip surface was blocked with 1 M ethanolamine/HCl (pH 8.5) for 7 min at a flow rate of 10 L/min. […] The test materials were injected for 10 min (for Fc immobilized with FcγRIA and FcγRIIA) or 15 min (for Fc immobilized with FcγRIIIA, FcγRIIIB, and FcγRIIB/C) for association, followed by 10 min-dissociation at 20 μL/min. Binding affinity was evaluated with a steady-state affinity fitting model in BIACORE T200 Evaluation Software version 3.0. Blank-subtracted sensograms (RU form reference channel and blanks were subtracted) were used for evaluation.
Description for human C1q: The target immobilization of the three materials was 3000 RU. To stabilize the sensor chip, running buffer (HBS-EP) was injected for 10 min, followed by 10 min dissociation at 25 μL/min before test material injection. Then, regeneration buffer was injected for 30 s at 25 μL/min; this step was repeated three times. C1q was diluted with running buffer to 50, 25, 12.5, 6.25, and 3.125 nM and injected for 6 min for association, followed by 10-min dissociation at 25 μL/min. The remaining C1q was regenerated with regeneration buffer for 30 s at 25 μL/min; this step was repeated three times. Binding affinity was evaluated with a steady-state affinity fitting model in BIACORE T200 Evaluation Software version 3.0. Blank-subtracted sensograms (RU form reference channel and blank were subtracted) were used for evaluation.

As to `CC1=NS(=O)(=O)c2cc(Cl)ccc2N1` [diazoxide, Diazoxide], in test [1], the response rate was 71%.
Take “HMC001: Fc fragment of human immunoglobulin G4, derived from Escherichia coli, lacks glycosylation”: the Kd in the test with FcγRIIA, in the test with FcγRIIIA, in the test with FcγRIA, in the test with FcγRIIIB, with FcγRIIB/C and with human C1q was more than 500 nM throughout.
